Values of other authors in paper PMC2289845.

Target: KIX KIX (UniProt P45481)
Sequence of UniProt P45481 (P45481 586-665): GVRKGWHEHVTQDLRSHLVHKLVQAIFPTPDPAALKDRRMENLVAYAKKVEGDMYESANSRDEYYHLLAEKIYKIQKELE

- Kd: 1300 nM
Substance: pKID KID (from UniProt P15337)
